# The supplement of paper PMC11316812
# ± gives the standard deviation of the averaged measurements.
# Key:
# MCF7 = test: percentage of EdU-negative (G0-arrested) nuclei per well, 72 h; higher = more G0 arrest; details: reference: sequence is the full UniProt precursor, the tested protein was the secreted form or ectodomain
# hTERT-HMEC = test: as above; details: reference: sequence is the full UniProt precursor, the tested protein was the secreted form or ectodomain
# [1] = protein concentration 0.01525 µM
# [2] = protein concentration 0.1525 µM
# [3] = protein concentration 0.0225 µM
# [4] = protein concentration 0.01975 µM
# [5] = protein concentration 0.1975 µM
# [6] = protein concentration 0.0289325 µM
# [7] = protein concentration 0.289325 µM
# 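Also: secreted proteins added to cultured cells, EdU pulse at the end, nuclei found by Hoechst imaging, EdU status from nuclear versus surrounding ring intensity ratio, PBS as neutral control.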
sequence,measurement,setting,value
MGPGRPAPAPWPRHLLRCVLLLGCLHLGRPGAPGDAALPEPNVFLIFSHGLQGCLEAQGGQVRVTPACNTSLPAQRWKWVSRNRLFNLGTMQCLGTGWPGTNTTASLGMYECDREALNLRWHCRTLGDQLSLLLGARTSNISKPGTLERGDQTRSGQWRIYGSEEDLCALPYHEVYTIQGNSHGKPCTIPFKYDNQWFHGCTSTGREDGHLWCATTQDYGKDERWGFCPIKSNDCETFWDKDQLTDSCYQFNFQSTLSWREAWASCEQQGADLLSITEIHEQTYINGLLTGYSSTLWIGLNDLDTSGGWQWSDNSPLKYLNWESDQPDNPSEENCGVIRTESSGGWQNRDCSIALPYVCKKKPNATAEPTPPDRWANVKVECEPSWQPFQGHCYRLQAEKRSWQESKKACLRGGGDLVSIHSMAELEFITKQIKQEVEELWIGLNDLKLQMNFEWSDGSLVSFTHWHPFEPNNFRDSLEDCVTIWGPEGRWNDSPCNQSLPSICKKAGQLSQGAAEEDHGCRKGWTWHSPSCYWLGEDQVTYSEARRLCTDHGSQLVTITNRFEQAFVSSLIYNWEGEYFWTALQDLNSTGSFFWLSGDEVMYTHWNRDQPGYSRGGCVALATGSAMGLWEVKNCTSFRARYICRQSLGTPVTPELPGPDPTPSLTGSCPQGWASDTKLRYCYKVFSSERLQDKKSWVQAQGACQELGAQLLSLASYEEEHFVANMLNKIFGESEPEIHEQHWFWIGLNRRDPRGGQSWRWSDGVGFSYHNFDRSRHDDDDIRGCAVLDLASLQWVAMQCDTQLDWICKIPRGTDVREPDDSPQGRREWLRFQEAEYKFFEHHSTWAQAQRICTWFQAELTSVHSQAELDFLSHNLQKFSRAQEQHWWIGLHTSESDGRFRWTDGSIINFISWAPGKPRPVGKDKKCVYMTASREDWGDQRCLTALPYICKRSNVTKETQPPDLPTTALGGCPSDWIQFLNKCFQVQGQEPQSRVKWSEAQFSCEQQEAQLVTITNPLEQAFITASLPNVTFDLWIGLHASQRDFQWVEQEPLMYANWAPGEPSGPSPAPSGNKPTSCAVVLHSPSAHFTGRWDDRSCTEETHGFICQKGTDPSLSPSPAALPPAPGTELSYLNGTFRLLQKPLRWHDALLLCESRNASLAYVPDPYTQAFLTQAARGLRTPLWIGLAGEEGSRRYSWVSEEPLNYVGWQDGEPQQPGGCTYVDVDGAWRTTSCDTKLQGAVCGVSSGPPPPRRISYHGSCPQGLADSAWIPFREHCYSFHMELLLGHKEARQRCQRAGGAVLSILDEMENVFVWEHLQSYEGQSRGAWLGMNFNPKGGTLVWQDNTAVNYSNWGPPGLGPSMLSHNSCYWIQSNSGLWRPGACTNITMGVVCKLPRAEQSSFSPSALPENPAALVVVLMAVLLLLALLTAALILYRRRQSIERGAFEGARYSRSSSSPTEATEKNILVSDMEMNEQQE [Q9UBG0],percentage of EdU-negative,MCF7; [1],25.5 ± 1.7%
same,percentage of EdU-negative,MCF7; [2],24.5 ± 0.7%
same,percentage of EdU-negative,hTERT-HMEC; [1],4.54 ± 0.35%
same,percentage of EdU-negative,hTERT-HMEC; [2],6.08 ± 1.1%
MGPISAPSCRWRIPWQGLLLTASLFTFWNPPTTAQLTIEAVPSNAAEGKEVLLLVHNLPQDPRGYNWYKGETVDANRRIIGYVISNQQITPGPAYSNRETIYPNASLLMRNVTRNDTGSYTLQVIKLNLMSEEVTGQFSVHPETPKPSISSNNSNPVEDKDAVAFTCEPETQNTTYLWWVNGQSLPVSPRLQLSNGNRTLTLLSVTRNDVGPYECEIQNPASANFSDPVTLNVLYGPDAPTISPSDTYYHAGVNLNLSCHAASNPPSQYSWSVNGTFQQYTQKLFIPNITTKNSGSYACHTTNSATGRNRTTVRMITVSDALVQGSSPGLSARATVSIMIGVLARVALI,percentage of EdU-negative,MCF7; [3],25.7 ± 1.8%
same,percentage of EdU-negative,MCF7; protein concentration 0.225 µM,27.4 ± 2.2%
same,percentage of EdU-negative,hTERT-HMEC; [3],5.19 ± 1.8%
same,percentage of EdU-negative,hTERT-HMEC; protein concentration 0.225 µM,9.55 ± 1.5%
MGPLINRCKKILLPTTVPPATMRIWLLGGLLPFLLLLSGLQRPTEGSEVAIKIDFDFAPGSFDDQYQGCSKQVMEKLTQGDYFTKDIEAQKNYFRMWQKAHLAWLNQGKVLPQNMTTTHAVAILFYTLNSNVHSDFTRAMASVARTPQQYERSFHFKYLHYYLTSAIQLLRKDSIMENGTLCYEVHYRTKDVHFNAYTGATIRFGQFLSTSLLKEEAQEFGNQTLFTIFTCLGAPVQYFSLKKEVLIPPYELFKVINMSYHPRGDWLQLRSTGNLSTYNCQLLKASSKKCIPDPIAIASLSFLTSVIIFSKSRV,percentage of EdU-negative,MCF7; [3],23.9 ± 0.46%
same,percentage of EdU-negative,MCF7; protein concentration 0.225 µM,27.2 ± 0.8%
same,percentage of EdU-negative,hTERT-HMEC; [3],5.08 ± 0.63%
same,percentage of EdU-negative,hTERT-HMEC; protein concentration 0.225 µM,6.69 ± 0.27%
MGPLMVLFCLLFLYPGLADSAPSCPQNVNISGGTFTLSHGWAPGSLLTYSCPQGLYPSPASRLCKSSGQWQTPGATRSLSKAVCKPVRCPAPVSFENGIYTPRLGSYPVGGNVSFECEDGFILRGSPVRQCRPNGMWDGETAVCDNGAGHCPNPGISLGAVRTGFRFGHGDKVRYRCSSNLVLTGSSERECQGNGVWSGTEPICRQPYSYDFPEDVAPALGTSFSHMLGATNPTQKTKESLGRKIQIQRSGHLNLYLLLDCSQSVSENDFLIFKESASLMVDRIFSFEINVSVAIITFASEPKVLMSVLNDNSRDMTEVISSLENANYKDHENGTGTNTYAALNSVYLMMNNQMRLLGMETMAWQEIRHAIILLTDGKSNMGGSPKTAVDHIREILNINQKRNDYLDIYAIGVGKLDVDWRELNELGSKKDGERHAFILQDTKALHQVFEHMLDVSKLTDTICGVGNMSANASDQERTPWHVTIKPKSQETCRGALISDQWVLTAAHCFRDGNDHSLWRVNVGDPKSQWGKEFLIEKAVISPGFDVFAKKNQGILEFYGDDIALLKLAQKVKMSTHARPICLPCTMEANLALRRPQGSTCRDHENELLNKQSVPAHFVALNGSKLNINLKMGVEWTSCAEVVSQEKTMFPNLTDVREVVTDQFLCSGTQEDESPCKGESGGAVFLERRFRFFQVGLVSWGLYNPCLGSADKNSRKRAPRSKVPPPRDFHINLFRMQPWLRQHLGDVLNFLPL,percentage of EdU-negative,MCF7; [4],27.3 ± 1.1%
same,percentage of EdU-negative,MCF7; [5],27.9 ± 2%
same,percentage of EdU-negative,hTERT-HMEC; [4],5.66 ± 0.4%
same,percentage of EdU-negative,hTERT-HMEC; [5],16.21 ± 0.11%
MGPLPAPSCTQRITWKGLLLTASLLNFWNPPTTAEVTIEAQPPKVSEGKDVLLLVHNLPQNLPGYFWYKGEMTDLYHYIISYIVDGKIIIYGPAYSGRETVYSNASLLIQNVTRKDAGTYTLHIIKRGDETREEIRHFTFTLYLETPKPYISSSNLNPREAMEAVRLICDPETLDASYLWWMNGQSLPVTHRLQLSKTNRTLYLFGVTKYIAGPYECEIRNPVSASRSDPVTLNLLPKLPIPYITINNLNPRENKDVLAFTCEPKSENYTYIWWLNGQSLPVSPGVKRPIENRILILPSVTRNETGPYQCEIRDRYGGLRSNPVILNVLYGPDLPRIYPSFTYYRSGENLDLSCFTESNPPAEYFWTINGKFQQSGQKLFIPQITRNHSGLYACSVHNSATGKEISKSMTVKVSGPCHGDLTESQS,percentage of EdU-negative,MCF7; [6],25.2 ± 0.61%
same,percentage of EdU-negative,MCF7; [7],26.3 ± 0.9%
same,percentage of EdU-negative,hTERT-HMEC; [6],4.85 ± 0.41%
same,percentage of EdU-negative,hTERT-HMEC; [7],4.97 ± 0.19%
